What all share (experiment): EMSA
On the technique in general: In EMSA bound probe runs differently from free probe, usually more slowly.

Series [1] addresses T1, TWINKLE wt (lacks mitochondrial targeting sequence 1-42) (human, UniProt Q96RR1 43-684).
T1 sequence: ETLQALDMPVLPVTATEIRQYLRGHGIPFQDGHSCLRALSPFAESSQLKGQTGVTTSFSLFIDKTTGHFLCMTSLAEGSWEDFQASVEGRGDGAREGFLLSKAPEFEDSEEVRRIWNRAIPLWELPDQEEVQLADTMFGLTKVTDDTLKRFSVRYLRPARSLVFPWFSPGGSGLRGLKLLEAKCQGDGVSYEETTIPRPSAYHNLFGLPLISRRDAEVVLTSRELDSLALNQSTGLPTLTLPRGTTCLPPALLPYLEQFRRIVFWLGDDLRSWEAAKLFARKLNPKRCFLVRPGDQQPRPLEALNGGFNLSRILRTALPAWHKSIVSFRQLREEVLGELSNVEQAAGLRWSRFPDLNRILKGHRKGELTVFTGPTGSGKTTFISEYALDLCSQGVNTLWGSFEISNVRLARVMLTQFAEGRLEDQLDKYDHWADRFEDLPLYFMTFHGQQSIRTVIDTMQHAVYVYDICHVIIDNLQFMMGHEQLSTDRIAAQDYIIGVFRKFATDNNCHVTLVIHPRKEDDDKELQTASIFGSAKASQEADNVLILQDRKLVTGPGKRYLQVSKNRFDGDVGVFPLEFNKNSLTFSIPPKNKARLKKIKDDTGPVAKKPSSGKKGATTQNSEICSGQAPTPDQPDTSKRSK

Series [2] deals with T1, TWINKLE wt (lacks mitochondrial …). The source holds these as a separate data set.
For a further series, the target named is T2, TWINKLE Δ372-684 (human, UniProt Q96RR1 43-371, del372-684).
T2 sequence: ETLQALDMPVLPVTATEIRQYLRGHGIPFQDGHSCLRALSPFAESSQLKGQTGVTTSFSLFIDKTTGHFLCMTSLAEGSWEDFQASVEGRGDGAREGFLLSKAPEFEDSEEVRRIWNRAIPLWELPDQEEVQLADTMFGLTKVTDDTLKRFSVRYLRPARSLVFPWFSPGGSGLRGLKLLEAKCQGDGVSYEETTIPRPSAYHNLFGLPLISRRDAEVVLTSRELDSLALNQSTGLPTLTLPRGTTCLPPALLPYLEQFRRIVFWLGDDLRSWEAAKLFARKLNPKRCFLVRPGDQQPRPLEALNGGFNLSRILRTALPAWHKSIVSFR

Another series concerns the target T3, TWINKY (human, UniProt Q96RR1-2 43-582, del579-684).
T3 sequence: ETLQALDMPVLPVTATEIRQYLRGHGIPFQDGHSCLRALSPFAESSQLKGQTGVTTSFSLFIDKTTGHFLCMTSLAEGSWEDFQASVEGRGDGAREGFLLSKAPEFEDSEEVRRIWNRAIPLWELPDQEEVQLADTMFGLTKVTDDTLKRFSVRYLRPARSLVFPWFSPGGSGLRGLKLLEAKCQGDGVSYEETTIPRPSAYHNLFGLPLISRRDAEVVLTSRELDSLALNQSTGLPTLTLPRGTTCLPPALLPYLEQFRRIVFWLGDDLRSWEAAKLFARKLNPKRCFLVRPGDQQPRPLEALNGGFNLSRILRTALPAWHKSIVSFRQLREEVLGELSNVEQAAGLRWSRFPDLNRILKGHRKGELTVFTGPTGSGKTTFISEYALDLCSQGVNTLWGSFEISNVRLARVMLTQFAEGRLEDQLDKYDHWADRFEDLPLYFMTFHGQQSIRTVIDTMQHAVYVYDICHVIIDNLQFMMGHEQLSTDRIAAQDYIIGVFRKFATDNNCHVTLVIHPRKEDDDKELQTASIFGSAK

The target of another series is T4, TWINKLE Δ1-121 (human, UniProt Q96RR1 122-684, del1-121).
T4 sequence: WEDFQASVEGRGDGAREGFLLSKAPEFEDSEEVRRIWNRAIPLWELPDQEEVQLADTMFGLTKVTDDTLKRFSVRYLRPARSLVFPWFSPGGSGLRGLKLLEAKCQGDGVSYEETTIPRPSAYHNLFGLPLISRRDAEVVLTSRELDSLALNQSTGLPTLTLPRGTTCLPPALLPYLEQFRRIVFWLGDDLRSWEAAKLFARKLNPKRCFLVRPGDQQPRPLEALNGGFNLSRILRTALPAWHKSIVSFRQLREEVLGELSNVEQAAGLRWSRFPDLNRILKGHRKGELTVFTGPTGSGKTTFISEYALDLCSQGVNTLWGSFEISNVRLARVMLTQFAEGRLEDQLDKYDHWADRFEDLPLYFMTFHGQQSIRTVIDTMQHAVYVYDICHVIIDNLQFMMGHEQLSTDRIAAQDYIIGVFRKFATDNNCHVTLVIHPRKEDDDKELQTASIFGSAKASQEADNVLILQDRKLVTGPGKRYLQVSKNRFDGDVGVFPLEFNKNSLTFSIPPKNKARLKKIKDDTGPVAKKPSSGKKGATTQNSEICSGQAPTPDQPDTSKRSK

We go through 6 molecules from PMC2241861.

A word on the Kd: it is the constant that tells how readily two partners part at equilibrium. The low end stands for tighter binding, the high end for weaker binding.

B1: ds45 (dsDNA)
DNA 1: TGGCACGACAGGTTTCCCGACTGGAAAGCGGGCAGTCAGCTCTAG
DNA 2: CTAGAGCTGACTGCCCGCTTTCCAGTCGGGAAACCTGTCGTGCCA
In the case of B1, the binding result in series [1] is given as “binds”.

B2: ds30 (dsDNA)
DNA 1: TGGCACGACAGGTTTCCCGACTGGAAAGCG
DNA 2: CGCTTTCCAGTCGGGAAACCTGTCGTGCCA
For the molecule B2, the Kd in series [2] was about 5 nM. The values for the binding result in the series with TWINKLE Δ372-684, with TWINKY and with TWINKLE Δ1-121 were “no binding”, “no binding” and “binds”, respectively.

B3: ds15 (dsDNA)
DNA 1: CTCTAGACTCGACCG
DNA 2: CGGTCGAGTCTAGAG
Take B3: the binding result in series [1] is reported as “binds”.

On to TTTTTTTTTTTTTTTTTTTTTTTTTTTTTTTTTTTTTTTTTTTTT (ssDNA) [ss45 poly-dT], for which the binding result in series [1] is listed as “binds”.

With TTTTTTTTTTTTTTT (ssDNA) [ss15 poly-dT], the binding result in series [1] was “no binding”.

With TTTTTTTTTTTTTTTTTTTTTTTTTTTTTT (ssDNA) [ss30 poly-dT], the Kd in series [2] is about 5 nM. The binding result with TWINKLE Δ372-684 and in the series with TWINKY was “no binding” in each case.
